Publication PMC12022973, “Proteomimetic Strategy for the Modulation of Intrinsically Disordered Protein MYC” (Journal of the American Chemical Society, 2025)
Positions of bridges follow the written chain, without caps; N, C: chain ends. Chains are numbered I, II in the order given. No end group written: not given here.

B1: fluorescein-labeled CHD^Max-3 (negative control) (designed binder)
chain 1: LREKAATLQWCIEELRK
chain 2: LRRKAETAQWEIEELC
modifications: bridge I:11-II:16; not fully specified (bridges); also: fluorescein label, chain and position not given here
B2: fluorescein-labeled CHD^Max-2 (designed binder)
chain 1: LREKIATLQWCIEELRK
chain 2: LEARIETHQWRIRELCE
modifications: bridge I:11-II:16; not fully specified (bridges); also: fluorescein label, chain and position not given here
B3: fluorescein-labeled CHD^Max-1 (cross-linked helix dimer derived from MAX) (designed binder)
chain 1: LREKIATLQWCIEELRK
chain 2: LRRKNETHQWEIEELC
modifications: bridge I:11-II:16; not fully specified (bridges); also: fluorescein label, chain and position not given here

Molecular target: T1, recombinant human MYC^353–437 protein (human)
T1 construct: MYC, human, residues 353-437; Aggregates above 5 μM; also called His6-MYC^353–437; source: recombinant
Assay: fluorescence polarisation; fluorescein-labeled CHDs with His6-MYC^353–437, His6-MAX or the MYC/MAX complex; MYC up to 5 μM (aggregation above)
Conditions: both partners purified

| Binder | Kd |
| --- | --- |
| B1 | > 5000 nM |
| B2 | 880 ± 53 nM |
| B3 | 350 ± 17 nM |
